# Laboratory results as given in patent US11053304 (CENTIVAX, dated 2021).
# Numbering of substitutions follows the chain as printed.
# B1: COVID19_P20_F02 (scFv, V domains shown)
# VH: EVQLVESGGGLVQPGGSLRLSCAASGFAFSNYGMHWIRQAPGKGLEWVSGIDGSGGTAHYADSVKGRFTISRDNSKNTLYLQMNSLRAEDTAVYYCVTNMDNSRDYFPHYFHDMDVWGQGTLVTVSS
# VL: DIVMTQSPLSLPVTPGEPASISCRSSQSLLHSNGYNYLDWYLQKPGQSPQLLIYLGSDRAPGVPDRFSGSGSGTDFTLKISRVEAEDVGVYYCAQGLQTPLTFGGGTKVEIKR
# B2: COVID19_P20_G06 (scFv, V domains shown)
# VH: EVQLVESGGGLVQPGGSLRLSCAASGFTFSNSDMNWVRQAPGKGLEWVSGISGGGAGTYYADSVKGRFTISRDNSKNTLYLQMNSLRAEDTAVYYCVTYRDNSRDYFPHYFHDMDVWGQGTLVTVSS
# VL: DIVMTQSPLSLPVTPGEPASISCRSSQSLVHSNGDTYLDWYLQKPGQSPQLLIYLGSIRAPGVPDRFSGSGSGTDFTLKISRVEAEDVGVYYCQQSYSTPWTFGGGTKVEIKR
# B3: COVID19_P19_C03 (scFv, V domains shown)
# VH: B2 VH with G50R, S52N, G54D, A56S, G57T, Y59G, Y99T, R100G
# VL: B2 VL with V30L, S98I
# B4: COVID19_P19_B09 (scFv, V domains shown)
# VH: EVQLVESGGGLVQPGGSLRLSCAASGFTFSSHTIAWVRQAPGKGLEWLSHISSSGSTTYYADSVKGRFTISRDNSKNTLYLQMNSLRAEDTAVYYCVTQRDNSRDMSPHYFHDMDVWGQGTLVTVSS
# VL: B2 VL with V30L, H31D, D35F, T36N, I58S, S98N
# B5: COVID19_P19_E01 (scFv, V domains shown)
# VH: EVQLVESGGGLVQPGGSLRLSCAASGFTFSSYAMHWVRQAPGKGLEWVAVVSRSGGSTFYADSVKGRFTISRDNSKNTLYLQMNSLRAEDTAVYYCVTQRDNSRDYFPHYFHDMDVWGQGTLVTVSS
# VL: B2 VL
# B6: COVID19_P07_G06 (scFv, V domains shown)
# VH: EVQLVESGGGLVQPGGSLRLSCAASGFTFSSYAMHWVRQAPGKGLEWVSAIGAGGGTYYADSVKGRFTISRDNSKNTLYLQMNSLRAEDTAVYYCVTNLDNSRDYFPHYFHDMDVWGQGTLVTVSS
# VL: DIVMTQSPLSLPVTPGEPASISCRSSQSLLHSNGYNYLDWYLQKPGQSPQLLIYGASTRATGVPDRFSGSGSGTDFTLKISRVEAEDVGVYYCMQTLQTPRFGGGTKVEIKR
# B7: COVID19_P19_C08 (scFv, V domains shown)
# VH: EVQLVESGGGLVQPGGSLRLSCAASGFTFSSYAMHWVRQAPGKGLEWVSAISASSAGAYYADSVKGRFTISRDNSKNTLYLQMNSLRAEDTAVYYCVTNMDNSRDYFPHYFHDMDVWGQGTLVTVSS
# VL: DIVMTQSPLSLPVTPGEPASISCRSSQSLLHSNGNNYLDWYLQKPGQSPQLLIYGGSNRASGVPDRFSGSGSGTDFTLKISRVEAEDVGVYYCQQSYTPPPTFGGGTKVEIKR
# B8: COVID19_P20_A11 (scFv, V domains shown)
# VH: B7 VH with A53G, S55G, A56D, G57N, A58T
# VL: not shown
# B9: COVID19_P07_F11 (scFv, V domains shown)
# VH: B7 VH with A33G, V37I, I51V, S55G, A56D, G57R, A58T, Y59H, M100L
# VL: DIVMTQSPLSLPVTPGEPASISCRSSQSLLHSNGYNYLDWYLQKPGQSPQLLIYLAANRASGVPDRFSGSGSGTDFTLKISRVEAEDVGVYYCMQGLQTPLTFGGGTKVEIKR
# B10: COVID19_P08_C03 (scFv, V domains shown)
# VH: B5 VH with V51I, R53S, G56R, S57N, T58K, Q99N, R100L
# VL: not shown
# B11: COVID19_P08_F07 (scFv, V domains shown)
# VH: B1 VH with A28I, S30T, G33A, M34L, I37V, G50A, D52S, T57S, A58T, M100L
# VL: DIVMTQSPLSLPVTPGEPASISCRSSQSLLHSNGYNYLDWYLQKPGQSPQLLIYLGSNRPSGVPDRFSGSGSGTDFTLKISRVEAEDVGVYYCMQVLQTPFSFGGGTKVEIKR
# B12: COVID19_P20_F08 (scFv, V domains shown)
# VH: B7 VH with A50V, S55G, A56G, G57N, A58T, M100L
# VL: DIVMTQSPLSLPVTPGEPASISCRSSRSLLHTNGLNYIDWYLQKPGQSPQLLIYLGSNRASGVPDRFSGSGSGTDFTLKISRVEAEDVGVYYCTQALQTPISFGGGTKVEIKR
# B13: COVID19_P07_F01 (scFv, V domains shown)
# VH: B5 VH with A49S, V50A, S52G, R53D, G56R, F59Y, Q99N, R100L
# VL: not shown
# B14: COVID19_P08_B11 (scFv, V domains shown)
# VH: B7 VH with A33G, V37I, I51V, S55G, A56D, G57R, A58T, Y59H, M100L
# VL: B6 VL with Y37R, D39A, G55L, A56G, T58Y, T61S, T96A, R101S
# B15: COVID19_P19_F02 (scFv, V domains shown)
# VH: B7 VH with A33G, I51Y, A53G, S55G, A56G, G57Y, A58T, Y60F
# VL: DIVMTQSPLSLPVTPGEPASISCKSSQSLLHINGFNYLDWFLQKPGQSPQLLIYLGSNRAPGVPDRFSGSGSGTDFTLKISRVEAEDVGVYYCQQSLQNPRTFGGGTKVEIKR
# B16: COVID19_P08_G02 (scFv, V domains shown)
# VH: B7 VH with A33G, V37I, I51V, S55G, A56D, G57R, A58T, Y59H, M100L
# VL: DIVMTQSPLSLPVTPGEPASISCRSSQSLVHSDGYTYLNWYLQKPGQSPQLLIYVGSYRASGVPDRFSGSGSGTDFTLKISRVEAEDVGVYYCMQASQWPPTFGGGTKVEIKR
# B17: COVID19_P08_D04 (scFv, V domains shown)
# VH: B7 VH with T28I, H35N, A50G, A53G, S55G, A56G, M100L
# VL: DIVMTQSPLSLPVTPGEPASISCRSSQSLLQSNGYNYMDWYLQKPGQSPQLLIYLTSNRAAGVPDRFSGSGSGTDFTLKISRVEAEDVGVYYCQQSYGPPLTFGGGTKVEIKR
# B18: COVID19_P07_F10 (scFv, V domains shown)
# VH: B7 VH with A33G, A50G, I51V, S55G, A56G, A58P
# VL: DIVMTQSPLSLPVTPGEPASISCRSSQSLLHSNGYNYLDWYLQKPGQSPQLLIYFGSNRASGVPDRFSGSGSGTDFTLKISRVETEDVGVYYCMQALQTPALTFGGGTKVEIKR
# B19: COVID19_P07_A09 (scFv, V domains shown)
# VH: EVQLVESGGGLVQPGGSLRLSCAASGFTFSSYGVHWVRQAPGKGLEWVAVISHDGKKKYYADSVKGRFTISRDNSKNTLYLQMNSLRAEDTAVYYCVTNVDNSRDYFPHYFHDMDVWGQGTLVTVSS
# VL: not shown
# B20: COVID19_P19_C12 (scFv, V domains shown)
# VH: B7 VH with S30R, S31N, I51V, A53S, S55G, A56G, G57S, A58P
# VL: B16 VL with Y35D, T36N, V55S, A96G, S97T, Q98H, P101L
# B21: COVID19_P08_H09 (scFv, V domains shown)
# VH: EVQLVESGGGLVQPGGSLRLSCAASGFTFSDYALHWVRQAPGKGLEWVSGVSWNGSRTHYADSVKGRFTISRDNSKNTLYLQMNSLRAEDTAVYYCVTNMDNSRDYFPHYFHDMDVWGQGTLVTVSS
# VL: not shown
# Biological target: SARS-CoV-1 Receptor Binding Domain (RBD) protein (SARS-CoV-1, UniProt P59594 306-527)
# Assay: SPR, scFv captured via anti-V5, RBD as analyte
row,Binder,binding result
1,B1,no binding (tested: up to 300 nM)
2,B2,no binding (tested: up to 300 nM)
3,B3,no binding (tested: up to 300 nM)
4,B4,no binding (tested: up to 300 nM)
5,B5,no binding (tested: up to 300 nM)
6,B6,no binding (tested: up to 300 nM)
7,B7,no binding (tested: up to 300 nM)
8,B8,no binding (tested: up to 300 nM)
9,B9,no binding (tested: up to 300 nM)
10,B10,no binding (tested: up to 300 nM)
11,B11,no binding (tested: up to 300 nM)
12,B12,no binding (tested: up to 300 nM)
13,B13,no binding (tested: up to 300 nM)
14,B14,no binding (tested: up to 300 nM)
15,B15,no binding (tested: up to 300 nM)
16,B16,no binding (tested: up to 300 nM)
17,B17,no binding (tested: up to 300 nM)
18,B18,no binding (tested: up to 300 nM)
19,B19,no binding (tested: up to 300 nM)
20,B20,no binding (tested: up to 300 nM)
21,B21,no binding (tested: up to 300 nM)

# Biological target: T1, SARS-CoV-2 Receptor Binding Domain (RBD) protein (SARS-CoV-2, UniProt P0DTC2 319-541)
# Assay: SPR, scFv captured via anti-V5, RBD as analyte
row,Binder,Kd [µM]
1,B1,< 0.05
2,B2,< 0.05
3,B3,< 0.05
4,B4,< 0.05
5,B5,< 0.05
6,B6,< 0.05
7,B7,< 0.05
8,B8,< 0.05
9,B9,< 0.05
10,B10,< 0.05
11,B11,< 0.05
12,B12,< 0.05
13,B13,< 0.05
14,B14,< 0.05
15,B15,< 0.05
16,B16,< 0.05
17,B17,< 0.05
18,B18,< 0.05
19,B19,< 0.05
20,B20,< 0.05

# Biological target: MERS Receptor Binding Domain (RBD) protein (MERS coronavirus, UniProt K9N5Q8 367-606)
# Assay: SPR, scFv captured via anti-V5, RBD as analyte
row,Binder,binding result
1,B1,no binding (tested: up to 300 nM)
2,B2,no binding (tested: up to 300 nM)
3,B3,no binding (tested: up to 300 nM)
4,B4,no binding (tested: up to 300 nM)
5,B5,no binding (tested: up to 300 nM)
6,B6,no binding (tested: up to 300 nM)
7,B7,no binding (tested: up to 300 nM)
8,B8,no binding (tested: up to 300 nM)
9,B9,no binding (tested: up to 300 nM)
10,B10,no binding (tested: up to 300 nM)
11,B11,no binding (tested: up to 300 nM)
12,B12,no binding (tested: up to 300 nM)
13,B13,no binding (tested: up to 300 nM)
14,B14,no binding (tested: up to 300 nM)
15,B15,no binding (tested: up to 300 nM)
16,B16,no binding (tested: up to 300 nM)
17,B17,no binding (tested: up to 300 nM)
18,B18,no binding (tested: up to 300 nM)
19,B19,no binding (tested: up to 300 nM)
20,B20,no binding (tested: up to 300 nM)
21,B21,no binding (tested: up to 300 nM)

# Biological target: T1, SARS-CoV-2 Receptor Binding Domain …
# Assay: SPR, scFv captured via anti-V5, RBD as analyte
# Remark: another data set of the same source
Binder,Kd [µM],koff [s⁻¹],kon [M⁻¹ s⁻¹]
B1,0.0178,0.00081,45500
B2,0.00895,0.000834,93200
B3,0.0353,0.0058,164000
B4,0.0159,0.00313,197000
B5,0.0417,0.00644,155000
B6,0.0016,5.7e-05,36300
B7,0.0276,0.0047,170000
B8,0.0202,0.000872,43100
B13,0.0008,5.7e-05,68000
B15,0.0361,0.00384,106000
B16,0.00271,0.0001,38000
B17,0.00086,5.7e-05,66000
B18,0.00805,0.000483,60000
B19,0.0015,5.7e-05,39100
B21,0.0011,5.7e-05,51000
